Measurements reported in PMC8026125 (Science Advances, 2021).

T1: Ccl1 (yeast, UniProt P37366 1-393)
T1 sequence: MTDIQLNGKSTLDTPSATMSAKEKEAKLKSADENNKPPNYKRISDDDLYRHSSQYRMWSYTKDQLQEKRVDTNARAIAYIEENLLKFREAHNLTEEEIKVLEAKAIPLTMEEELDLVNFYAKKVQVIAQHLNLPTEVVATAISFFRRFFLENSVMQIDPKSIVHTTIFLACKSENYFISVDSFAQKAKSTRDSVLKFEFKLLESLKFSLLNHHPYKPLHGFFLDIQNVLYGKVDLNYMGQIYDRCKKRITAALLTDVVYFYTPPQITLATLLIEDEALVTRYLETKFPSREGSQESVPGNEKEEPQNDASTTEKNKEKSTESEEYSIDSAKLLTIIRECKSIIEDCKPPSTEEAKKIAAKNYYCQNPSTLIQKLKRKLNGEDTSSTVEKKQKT

B1: Kin28 (enzyme)
chain: MKVNMEYTKEKKVGEGTYAVVYLGCQHSTGRKIAIKEIKTSEFKDGLDMSAIREVKYLQEMQHPNVIELIDIFMAYDNLNLVLEFLPTDLEVVIKDKSILFTPADIKAWMLMTLRGVYHCHRNFILHRDLKPNNLLFSPDGQIKVADFGLARAIPAPHEILTSNVVTRWYRAPELLFGAKHYTSAIDIWSVGVIFAELMLRIPYLPGQNDVDQMEVTFRALGTPTDRDWPEVSSFMTYNKLQIYPPPSRDELRKRFIAASEYALDFMCGMLTMNPQKRWTAVQCLESDYFKELPPPSDPSSIKIRN
modifications: phosphothreonine at 162 (pT162)
B2: Tfb3 (natural protein)
chain: MLMDEYEENKDMCPICKTDRYLSPDVKFLVNPECYHRICESCVDRIFSLGPAQCPYKGCDKILRKNKFKTQIFDDVEVEKEVDIRKRVFNVFNKTIDDFNGDLVEYNKYLEEVEDIIYKLDHGIDVAKTEEKLRTYEELNKQLIMNNLERSRTEIESFEQRQKFEKEMKLKKRLLERQIEEEERMNKEWTKKEIVNRLSTTTQDINETIEGVKNTVKLKKSSARRKLEELNRVLKNNPYFNSNVNVQNSRLKDAVPFTPFNGDREAHPRFTLKGSVYNDPFIKDLEHRKEFIASGFNTNYAYERVLTEAFMGLGCVISEEL

Key:
Tfb3 = target: B2; test: cryo-EM structure
Ccl1 = target: T1, Ccl1; test: cryo-EM structure

Binder	binding result (Tfb3)	binding result (Ccl1)
B1	binds	binds
B2		binds
